In article PMC9784018, “Rational Strategy for Designing Peptidomimetic Small Molecules Based on Cyclic Peptides Targeting Protein–Protein Interaction between CTLA-4 and B7-1” (Pharmaceuticals, 2022) one finds EC50 and IC50 data, which are given here for two molecules.

The target in test [1] is CTLA-4 (coated for ELISA) (UniProt P16410). As to the kind of experiment: ELISA; CTLA-4 (5 μg/mL) coated on 384-well plate; purified MBP–peptide–His-tag fusion in 15-point two-fold dilution from 14 μM to 0.85 nM in PBS with 0.5% BSA, 1 h; detected with anti-FLAG M2 peroxidase antibody; EC50 = midpoint concentration. On the technique in general: In an ELISA, binding on a coated surface is turned into a signal by an enzyme label.

Test [2] concerns the target CTLA-4 of the CTLA-4:B7-1[Biotinylated] Inhibitor Screening Assay kit (UniProt P16410). Kind of test: ELISA; CTLA-4:B7-1[Biotinylated] Inhibitor Screening Assay kit (BPS Bioscience) with the MBP–peptide–His-tag fusion protein; data not shown.
Test [3] concerns the target CTLA-4 (coated for ELISA), P16410. As to the kind of experiment: ELISA. The following applies: chain shown with the change; CTLA-4 coated at 5 μg/mL on the ELISA plate.

CTLA-4 (coated for ELISA), P16410, sequence (P16410 36-161): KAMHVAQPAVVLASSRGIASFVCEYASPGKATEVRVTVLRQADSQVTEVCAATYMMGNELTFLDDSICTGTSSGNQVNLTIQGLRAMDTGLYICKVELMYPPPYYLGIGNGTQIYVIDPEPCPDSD

B1: MBP–C4m-3127 peptide–His-tag fusion protein (peptide)
chain: CMHPFLPIVSHHFCER
With B1, the EC50 in test [1] was determined as 74.7 nM. For the same molecule, the IC50 in test [2] is 1360 nM.

B2: MBP–C4-302–His-tag fusion protein M1L; L6P; V7I; G(+2)R (peptide)
chain: CLHPFLPIVSHHFCGR
In turn, B2 registered an EC50 in test [3] of 81.8 nM.

In general, EC50 refers to the concentration giving half of the maximal effect. A higher EC50 goes with a less potent agent. The term IC50 denotes the concentration needed to halve the response being measured. A high value points to a need for much substance.
